Measured values as given in article doi:10.1101/2023.10.09.561523 (bioRxiv, 2023).

Biological target: the molecule itself
Assay: mass photometry

B1: SH3-domain containing protein 2 (SH3P2), purified full-length protein (natural protein, Arabidopsis thaliana, UniProt Q8VWF1 1-368, looked up)
chain: MDAIRKQASRLREQVARQQQAVFKQFGGGGYGSGLADEAELNQHQKLEKLYISTRAAKHYQRDIVRGVEGYIVTGSKQVEIGTKLSEDSRKYGSENTCTNGNVLTRAALNYGRARAQMEKERGNMLKALGTQVAEPLRAMVLGAPLEDARHLAQRYDRMRQEAEAQATEVARRQAKARESQGNPDILMKLESAEAKLHDLKSNMTILGKEAASALASVEDQQQKLTLERLLSMVESERAYHQRVLQILDQLEGEMVSERQRIEAPSTPSSADSMPPPPSYEEANGVFASQMHDTSTDSMGYFLGEVLFPYHGVTDVELSLSTGEYVVVRKVTGSGWAEGECKGKAGWFPYGYIERRERVLASKVSEVF
stoichiometry N: 2
